Assay results: patent publication US20200172619A1 (UNIVERSIT T STUTTGART, published 2020)
Read-outs that look alike come from different tables or passages of the source.

How the values were obtained:
[1] = target: T1, human TNFR1-Fc fusion protein (human, UniProt P19438 30-211); test: ELISA, human TNFR1-Fc
T1 construct: Provided by Baliopharm AG; Coated at 1 ug/ml in the ELISA; also called huTNFR1-Fc; immobilized human TNFR1; not shown: Fc part not described
T1 sequence (looked up): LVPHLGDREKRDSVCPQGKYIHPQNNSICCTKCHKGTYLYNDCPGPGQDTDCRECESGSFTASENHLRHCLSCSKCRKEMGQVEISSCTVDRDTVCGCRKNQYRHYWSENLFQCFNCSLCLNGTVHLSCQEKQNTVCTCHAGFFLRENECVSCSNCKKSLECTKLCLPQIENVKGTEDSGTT
Method: (§1) Microtiter plates were coated with 100 μl of TNFFR1-Fc fusion protein (1 μg/ml in PBS) and incubated at 4° C. overnight. The residual binding sites were blocked with 2% MPBS (skim milk in PBS, 200 μl per well) at room temperature for 2 hours and subsequently washed twice with PBS. 100 μl of the samples diluted in 2% MPBS were incubated at room temperature for 1 hour prior to the last incubation step with 100 μl of the HRP conjugated detection antibodies in 2% MPBS. Bound protein was detected with 100 μl TMB substrate solution, the HRP-reaction was stopped by the addition of 50 μl 1 M H2SO4 and the absorption at the wavelength of 450 nm was measured using the Infinite microtiter plate reader (TECAN, Maennedorf, Switzerland). Between each incubation step and in advance of the detection, the plates were washed three times with PBST and twice with PBS.

[2] = target: T2, TNFR1 on the surface of cells (HT1080, HeLa, Kym-1) (human, UniProt P19438 30-455); test: cell-based or functional assay
T2 sequence (looked up): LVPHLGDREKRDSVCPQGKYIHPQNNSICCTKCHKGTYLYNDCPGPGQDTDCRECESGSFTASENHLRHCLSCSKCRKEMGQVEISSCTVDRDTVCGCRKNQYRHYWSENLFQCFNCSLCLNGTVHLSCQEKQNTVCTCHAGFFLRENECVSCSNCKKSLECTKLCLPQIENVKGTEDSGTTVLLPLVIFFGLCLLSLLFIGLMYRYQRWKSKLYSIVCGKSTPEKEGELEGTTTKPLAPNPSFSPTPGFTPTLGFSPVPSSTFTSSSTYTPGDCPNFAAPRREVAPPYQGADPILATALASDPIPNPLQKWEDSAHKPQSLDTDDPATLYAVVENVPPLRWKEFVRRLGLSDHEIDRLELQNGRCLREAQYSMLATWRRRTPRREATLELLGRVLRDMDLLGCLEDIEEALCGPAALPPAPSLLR

[3] = target: T2, TNFR1 on the surface of cells (HT1080, …); test: cell-based or functional assay; remark: listed apart in the source
[4] = target: T2, TNFR1 on the surface of cells (HT1080, …); test: cell-based or functional assay; remark: listed apart in the source
[5] = target: T2, TNFR1 on the surface of cells (HT1080, …); test: cell-based or functional assay; remark: listed apart in the source
[6] = target: T1, human TNFR1-Fc fusion protein; test: ELISA, immobilized human TNFR1-Fc
Method: Microtiter plates were coated with 100 μl of TNFFR1-Fc fusion protein (1 μg/ml in PBS) and incubated at 4° C. overnight.

[7] = target: T1, human TNFR1-Fc fusion protein; test: ELISA, immobilized human TNFR1-Fc; remark: listed apart in the source
[8] = target: MCSP (melanoma-associated chondroitin sulfate proteoglycan) on WM35 cells (human, UniProt Q6UVK1 30-2322); test: cell-based or functional assay
[9] = target: T3, Her3-Fc fusion protein (human, UniProt P21860 20-643); test: ELISA, immobilized Her3-Fc fusion protein
T3 construct: also called immobilized Her3-Fc fusion protein; not shown: Fc part not described

[10] = target: T1, human TNFR1-Fc fusion protein; test: ELISA, immobilized human TNFR1-Fc; remark: listed apart in the source
Method: as §1

Chain of MCSP (melanoma-associated chondroitin sulfate proteoglycan) on WM35 cells (Q6UVK1 30-2322): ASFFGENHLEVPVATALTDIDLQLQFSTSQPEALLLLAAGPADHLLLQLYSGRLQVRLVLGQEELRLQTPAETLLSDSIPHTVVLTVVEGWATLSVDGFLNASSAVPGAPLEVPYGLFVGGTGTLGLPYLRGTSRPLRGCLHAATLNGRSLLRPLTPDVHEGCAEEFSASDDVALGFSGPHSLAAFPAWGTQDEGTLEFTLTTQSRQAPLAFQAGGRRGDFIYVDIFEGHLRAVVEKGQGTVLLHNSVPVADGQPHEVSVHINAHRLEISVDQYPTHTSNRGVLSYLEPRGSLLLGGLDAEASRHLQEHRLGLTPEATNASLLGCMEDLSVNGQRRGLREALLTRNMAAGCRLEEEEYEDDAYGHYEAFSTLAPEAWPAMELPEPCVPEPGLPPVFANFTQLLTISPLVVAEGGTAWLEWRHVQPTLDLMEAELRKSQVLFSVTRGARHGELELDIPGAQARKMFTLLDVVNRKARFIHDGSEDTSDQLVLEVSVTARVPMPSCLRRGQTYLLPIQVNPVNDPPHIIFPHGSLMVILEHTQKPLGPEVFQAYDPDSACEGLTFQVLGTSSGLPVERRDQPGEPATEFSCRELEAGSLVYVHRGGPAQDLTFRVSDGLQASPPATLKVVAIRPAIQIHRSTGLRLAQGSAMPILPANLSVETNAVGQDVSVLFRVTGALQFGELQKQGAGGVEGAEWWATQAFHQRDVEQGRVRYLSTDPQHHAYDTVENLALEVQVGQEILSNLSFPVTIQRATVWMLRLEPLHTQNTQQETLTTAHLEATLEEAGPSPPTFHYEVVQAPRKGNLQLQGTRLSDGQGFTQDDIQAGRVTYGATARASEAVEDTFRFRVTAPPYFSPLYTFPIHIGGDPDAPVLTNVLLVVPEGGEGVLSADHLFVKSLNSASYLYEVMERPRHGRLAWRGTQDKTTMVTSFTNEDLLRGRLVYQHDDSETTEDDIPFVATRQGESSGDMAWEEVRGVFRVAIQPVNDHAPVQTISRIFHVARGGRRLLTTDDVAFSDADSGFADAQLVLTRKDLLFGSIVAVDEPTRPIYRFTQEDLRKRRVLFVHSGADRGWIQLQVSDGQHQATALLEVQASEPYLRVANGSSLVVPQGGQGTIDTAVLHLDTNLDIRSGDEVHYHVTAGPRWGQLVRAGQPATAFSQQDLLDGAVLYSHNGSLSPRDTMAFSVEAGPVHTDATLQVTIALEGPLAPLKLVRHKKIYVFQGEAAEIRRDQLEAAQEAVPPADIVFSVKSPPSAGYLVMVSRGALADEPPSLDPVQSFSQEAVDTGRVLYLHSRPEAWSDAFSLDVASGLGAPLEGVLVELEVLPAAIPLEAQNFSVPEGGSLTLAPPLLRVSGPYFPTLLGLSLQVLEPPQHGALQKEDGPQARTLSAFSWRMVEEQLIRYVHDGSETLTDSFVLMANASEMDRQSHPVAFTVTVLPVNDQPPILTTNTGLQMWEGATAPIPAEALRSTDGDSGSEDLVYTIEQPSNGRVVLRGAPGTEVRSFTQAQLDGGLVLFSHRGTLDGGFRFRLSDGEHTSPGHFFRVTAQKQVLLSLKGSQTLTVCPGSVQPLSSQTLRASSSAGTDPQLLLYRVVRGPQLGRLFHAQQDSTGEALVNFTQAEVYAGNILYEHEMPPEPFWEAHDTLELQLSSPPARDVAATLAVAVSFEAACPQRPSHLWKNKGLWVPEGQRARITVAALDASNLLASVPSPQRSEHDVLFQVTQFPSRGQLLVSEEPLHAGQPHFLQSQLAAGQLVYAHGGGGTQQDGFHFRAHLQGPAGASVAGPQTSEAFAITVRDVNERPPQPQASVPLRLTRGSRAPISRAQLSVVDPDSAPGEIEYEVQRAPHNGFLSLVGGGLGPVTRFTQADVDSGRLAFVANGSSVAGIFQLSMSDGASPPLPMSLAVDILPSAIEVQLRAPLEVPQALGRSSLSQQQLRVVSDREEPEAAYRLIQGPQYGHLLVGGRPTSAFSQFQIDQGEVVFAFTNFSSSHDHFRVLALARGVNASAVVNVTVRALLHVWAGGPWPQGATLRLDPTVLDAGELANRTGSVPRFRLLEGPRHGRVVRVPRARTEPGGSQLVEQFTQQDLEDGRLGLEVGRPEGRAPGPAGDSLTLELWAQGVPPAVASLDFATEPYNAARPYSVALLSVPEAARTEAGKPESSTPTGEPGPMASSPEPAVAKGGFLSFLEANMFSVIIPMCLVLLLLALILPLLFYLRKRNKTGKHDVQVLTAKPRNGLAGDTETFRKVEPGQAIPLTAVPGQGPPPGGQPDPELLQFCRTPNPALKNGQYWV

B1: Fab13.7 (Fab, V domains shown)
VH: HVQLVQSGAEVKKPGSSVKVSCKASGYTFTDFYINWVRQAPGQGLEWIGEIVPSQGEAKYNDKFKARVTITADKSTSTAYMELSSLRSEDTAVYYCARWDFLDYWGQGTTVTVSS
VL: DVQMTQSPSSLSASVGDRVTITCRSSQSLLHSNGNTYLHWYQQKPGKAPKLLIYTVSNRFSGVPSRFSGSGSGTDFTLTISSLQPEDFATYYCSQSTHVPYTFGGGTKVEIK
notes: Monovalent anti-human TNFR1 control Fab; Its variable domains are those used in Fv13.7-Fc1k and Fv13.7x-Fc1k
- EC50 [1]: 0.17 nM
- IC50, IL-6 release (HeLa cells) [2]: 31.7 nM
- IL-8 Inhibition IC50 [3]: 26.3 nM
- IL-8 Inhibition IC50 [4]: 13 nM
- IC50, Cell death induction [nM] (Kym-1 cells, 0.01 nM TNF) [5]: 9.5 nM
- IC50, IL-6 [nM] (HeLa cells, 0.1 nM TNF) [5]: 37.1 nM
- IC50, IL-8 [nM] (HT1080 cells, 0.1 nM TNF) [5]: 12.7 nM
- EC50 [6]: 0.61 nM
- EC50 [7]: 0.9 nM

B2: MCSPN-CD3N-hFc1k (bispecific antibody)
chain 1: QVQLVQSGAEVKKPGASVKVSCKASGYTFTRSWMNWVRQAPGQGLEWMGRIYPGDGDTNYNGKFKGRVTMTRDTSTSTVYMELSSLRSEDTAVYYCARGNTVVVPYTMDYWGQGTTVTVSSGGGGSGGGGSGGGGSDIQMTQSPSSLSASVGDRVTITCRASESVDSYGNSFMHWYQQKPGKAPKLLIYLASNLESGVPSRFSGSGSGTDFTLTISSLQPEDFATYYCQQNNEDPLTFGGGTKVEIKRAAADKTHTCPPCPAPPVAGPSVFLFPPKPKDTLMISRTPEVTCVVVDVSHEDPEVKFNWYVDGVEVHNAKTKPREEQYNSTYRVVSVLTVLHQDWLNGKEYKCKVSNKGLPSSIEKTISKAKGQPREPSVFPLAPSSKSTSGGTAALGCLVKDYFPSDIAVEWESGALTSGVHTFPAVLQSSGLYSLSSVVTVPSSSLGTQTYSCSVMHEALHNHYTQKSVEPKSC
chain 2: DIQMTQSPSSLSASVGDRVTITCRASQDIRNYLNWYQQKPGKAPKLLIYYTSRLHSGVPSRFSGSGSGTDFTFTISSLQPEDIATYYCQQGNTLPWTFGQGTKLEIKRGGGGSGGGGSGGGGSQVQLVQSGAEVKKPGSSVKVSCKASGGTFSGYTMNWVRQAPGQGLEWMGLINPYKGVSTYNGKFKDRVTITADKSTSTAYMELSSLRSEDTAVYYCARSGYYGDSDWYFDVWGQGTLVTVSSSGGGSGGGGSDKTHTCPPCPAPPVAGPSVFLFPPKPKDTLMISRTPEVTCVVVDVSHEDPEVKFNWYVDGVEVHNAKTKPREEQYNSTYRVVSVLTVLHQDWLNGKEYKCKVSNKGLPSSIEKTISKAKGQPREPSVFIFPPSDEQLKSGTASVVCLVNNFYPRDIAVEWEVDNALQSGNSQESVTEQDSKDSTYSLSSTLTLSKADYEKHKVYSCSVMHEALHNHYTQKSFNRGECGGGGSGGGGSGGGGSGTGGSGG
- Cytotxicity IC50 [8]: 0.2 nM

B3: Her3N-CD3N-hFc1k (bispecific antibody)
chain 1: QVQLQQSGPGLVKPSQTLSLTCAISGDSVSSNRAAWNWIRQSPSRGLEWLGRTYYRSKWYNDYAQSLKSRITINPDTPKNQFSLQLNSVTPEDTAVYYCARDGQLGLDALDIWGQGTMVTVSSGGGGSGGGGSGGGGSQAGLTQPPAVSVAPGQTASITCGRDNIGSRSVHWYQQKPGQAPVLVVYDDSDRPAGIPERFSGSNYENTATLTISRVEAGDEADYYCQVWGITSDHVVFGGGTKLTVLAAADKTHTCPPCPAPPVAGPSVFLFPPKPKDTLMISRTPEVTCVVVDVSHEDPEVKFNWYVDGVEVHNAKTKPREEQYNSTYRVVSVLTVLHQDWLNGKEYKCKVSNKGLPSSIEKTISKAKGQPREPSVFPLAPSSKSTSGGTAALGCLVKDYFPSDIAVEWESGALTSGVHTFPAVLQSSGLYSLSSVVTVPSSSLGTQTYSCSVMHEALHNHYTQKSVEPKSC
chain 2: DIQMTQSPSSLSASVGDRVTITCRASQDIRNYLNWYQQKPGKAPKLLIYYTSRLHSGVPSRFSGSGSGTDFTFTISSLQPEDIATYYCQQGNTLPWTFGQGTKLEIKRGGGGSGGGGSGGGGSQVQLVQSGAEVKKPGSSVKVSCKASGGTFSGYTMNWVRQAPGQGLEWMGLINPYKGVSTYNGKFKDRVTITADKSTSTAYMELSSLRSEDTAVYYCARSGYYGDSDWYFDVWGQGTLVTVSSSGGGSGGGGSDKTHTCPPCPAPPVAGPSVFLFPPKPKDTLMISRTPEVTCVVVDVSHEDPEVKFNWYVDGVEVHNAKTKPREEQYNSTYRVVSVLTVLHQDWLNGKEYKCKVSNKGLPSSIEKTISKAKGQPREPSVFIFPPSDEQLKSGTASVVCLVNNFYPRDIAVEWEVDNALQSGNSQESVTEQDSKDSTYSLSSTLTLSKADYEKHKVYSCSVMHEALHNHYTQKSFNRGECGGGGSGGGGSGGGGSGTGGSGG
notes: also called scFv3-43-CD3-Hinge-Fc1k
- EC50 [9]: 1 nM

B4: Fv13.7-Fc1k (Fc fusion)
chain 1: HVQLVQSGAEVKKPGSSVKVSCKASGYTFTDFYINWVRQAPGQGLEWIGEIVPSQGEAKYNDKFKARVTITADKSTSTAYMELSSLRSEDTAVYYCARWDFLDYWGQGTTVTVSSGTGGGSGPSVFLFPPKPKDTLMISRTPEVTCVVVDVSHEDPEVKFNWYVDGVEVHNAKTKPREEQYNSTYRVVSVLTVLHQDWLNGKEYKCKVSNKGLPSSIEKTISKAKGQPREPSVFPLAPSSKSTSGGTAALGCLVKDYFPSDIAVEWESGALTSGVHTFPAVLQSSGLYSLSSVVTVPSSSLGTQTYSCSVMHEALHNHYTQKSVEPKSC
chain 2: DVQMTQSPSSLSASVGDRVTITCRSSQSLLHSNGNTYLHWYQQKPGKAPKLLIYTVSNRFSGVPSRFSGSGSGTDFTLTISSLQPEDFATYYCSQSTHVPYTFGGGTKVEIKGTGGGSGPSVFLFPPKPKDTLMISRTPEVTCVVVDVSHEDPEVKFNWYVDGVEVHNAKTKPREEQYNSTYRVVSVLTVLHQDWLNGKEYKCKVSNKGLPSSIEKTISKAKGQPREPSVFIFPPSDEQLKSGTASVVCLVNNFYPRDIAVEWEVDNALQSGNSQESVTEQDSKDSTYSLSSTLTLSKADYEKHKVYSCSVMHEALHNHYTQKSFNRGEC
- factor of increased inhibitory potential (IL-8 inhibition) compared to ATROSAB [2]: 2.5 fold
- fold reduced bioactivity (IL-8 inhibition) compared to Fab13.7 [2]: 1.5 fold
- IL-8 Inhibition IC50 [3]: 39.7 nM
- fold reduced binding affinity compared with Fab13.7 [10]: 1.9 fold
- EC50 [6]: 1.18 nM

B5: Her3N-CD3C-hFc1k (bispecific antibody)
chain 1: QVQLQQSGPGLVKPSQTLSLTCAISGDSVSSNRAAWNWIRQSPSRGLEWLGRTYYRSKWYNDYAQSLKSRITINPDTPKNQFSLQLNSVTPEDTAVYYCARDGQLGLDALDIWGQGTMVTVSSGGGGSGGGGSGGGGSQAGLTQPPAVSVAPGQTASITCGRDNIGSRSVHWYQQKPGQAPVLVVYDDSDRPAGIPERFSGSNYENTATLTISRVEAGDEADYYCQVWGITSDHVVFGGGTKLTVLAAADKTHTCPPCPAPPVAGPSVFLFPPKPKDTLMISRTPEVTCVVVDVSHEDPEVKFNWYVDGVEVHNAKTKPREEQYNSTYRVVSVLTVLHQDWLNGKEYKCKVSNKGLPSSIEKTISKAKGQPREPSVFPLAPSSKSTSGGTAALGCLVKDYFPSDIAVEWESGALTSGVHTFPAVLQSSGLYSLSSVVTVPSSSLGTQTYSCSVMHEALHNHYTQKSVEPKSC
chain 2: DKTHTCPPCPAPPVAGPSVFLFPPKPKDTLMISRTPEVTCVVVDVSHEDPEVKFNWYVDGVEVHNAKTKPREEQYNSTYRVVSVLTVLHQDWLNGKEYKCKVSNKGLPSSIEKTISKAKGQPREPSVFIFPPSDEQLKSGTASVVCLVNNFYPRDIAVEWEVDNALQSGNSQESVTEQDSKDSTYSLSSTLTLSKADYEKHKVYSCSVMHEALHNHYTQKSFNRGECGGGGSGGGGSGGGGSGTDIQMTQSPSSLSASVGDRVTITCRASQDIRNYLNWYQQKPGKAPKLLIYYTSRLHSGVPSRFSGSGSGTDFTFTISSLQPEDIATYYCQQGNTLPWTFGQGTKLEIKRGGGGSGGGGSGGGGSQVQLVQSGAEVKKPGSSVKVSCKASGGTFSGYTMNWVRQAPGQGLEWMGLINPYKGVSTYNGKFKDRVTITADKSTSTAYMELSSLRSEDTAVYYCARSGYYGDSDWYFDVWGQGTLVTVSS
- EC50 [9]: 0.1 nM
